Like-named read-outs stand apart in the source and are kept apart here.
T1: TIGIT on the TIGIT-overexpressing Jurkat cell line (Jurkat-TIGIT) (Homo sapiens (Human), UniProt Q495A1 22-244)
T1 construct: Jurkat E6.1 cells transfected with 'TIGIT cDNA'; also called TIGIT expressed on the cell surface
T1 sequence: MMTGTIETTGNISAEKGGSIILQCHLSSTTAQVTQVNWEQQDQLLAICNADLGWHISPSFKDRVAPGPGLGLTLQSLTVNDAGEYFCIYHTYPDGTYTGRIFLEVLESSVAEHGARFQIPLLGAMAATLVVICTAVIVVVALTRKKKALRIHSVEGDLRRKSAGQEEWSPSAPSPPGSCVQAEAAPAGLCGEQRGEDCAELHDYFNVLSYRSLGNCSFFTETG

T2: mouse TIGIT on transfected HEK293 cells (mouse, UniProt P86176 29-249)
T2 construct: whole, on cells; GFP-expressing cells were gated; also called TIGIT of mice
T2 sequence (looked up): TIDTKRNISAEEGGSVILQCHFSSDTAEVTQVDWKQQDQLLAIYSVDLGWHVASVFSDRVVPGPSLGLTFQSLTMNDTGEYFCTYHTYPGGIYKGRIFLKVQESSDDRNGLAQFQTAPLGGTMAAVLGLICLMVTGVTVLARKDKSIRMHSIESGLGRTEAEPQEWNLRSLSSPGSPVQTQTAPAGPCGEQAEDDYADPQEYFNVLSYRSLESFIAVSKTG

T3: human TIGIT-Fc antigen (human, UniProt Q495A1 22-141)
T3 construct: not shown: Fc part
T3 chain: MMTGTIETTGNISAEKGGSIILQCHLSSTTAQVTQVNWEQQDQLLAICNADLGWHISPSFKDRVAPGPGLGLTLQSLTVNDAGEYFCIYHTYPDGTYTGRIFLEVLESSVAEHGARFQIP

T4: TIGIT on thaw-and-use TIGIT effector cells (TIGIT/CD155 blockade bioassay kit, Promega J2305) (UniProt Q495A1 22-244, limits assumed)
T4 sequence (looked up): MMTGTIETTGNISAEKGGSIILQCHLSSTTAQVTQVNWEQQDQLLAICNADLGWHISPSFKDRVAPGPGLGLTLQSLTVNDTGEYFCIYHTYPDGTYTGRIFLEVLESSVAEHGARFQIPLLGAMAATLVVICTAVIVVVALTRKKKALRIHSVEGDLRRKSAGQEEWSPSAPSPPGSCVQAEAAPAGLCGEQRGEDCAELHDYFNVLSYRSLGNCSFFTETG

T5: human TIGIT-His antigen (human, UniProt Q495A1 22-141)
T5 construct: not shown: His tag
T5 chain: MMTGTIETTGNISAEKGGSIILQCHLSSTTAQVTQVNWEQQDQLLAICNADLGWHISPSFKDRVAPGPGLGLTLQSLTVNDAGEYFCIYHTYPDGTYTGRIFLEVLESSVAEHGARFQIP


Experiments:
[1] = target: T1, TIGIT on the TIGIT-overexpressing …; test: competition in flow cytometry: Jurkat-TIGIT cells preloaded with PVR-Fc, then antibody; PVR left on the cells detected with anti-PVR-PE, MFI falls with the antibody concentration; the sheet calls the half-maximal value EC50
Description: The TIGIT-overexpressing cell line (Jurkat-TIGIT) was resuspended in DPBS supplemented with 2% (v/v) FBS (hereinafter, FACS buffer), centrifuged at 1,500 rpm, and resuspended in FACS buffer so that the number of cells was 3×10⁶ cells/ml, and 100 μl of the suspension was added to each well of a U-bottom 96-well plate. Then, the cells and culture solution of each well were recovered and centrifuged at 1,500 rpm, and then the supernatant was discarded.
This series of processes was repeated twice. […] This series of processes was repeated twice. […] This series of processes was repeated twice. […] The cells reacted with the fixation buffer were recovered, resuspended in FACS buffer, and centrifuged at 1,500 rpm, the supernatant was discarded, and the residue was washed. This series of processes was repeated twice. The washed cells were resuspended in 200 μl of FACS buffer. Then, the median fluorescence intensity (MFI) of PE with which the cells were labeled was compared using a FACS LSR-Fortessa instrument. All FACS analysis was performed using FlowJo software.

[2] = target: T2, mouse TIGIT on transfected HEK293 cells; test: flow cytometry on HEK293 cells transfected with mouse TIGIT
Description: The result was washed once with PBS, and then the cells were resuspended in FACS buffer to a concentration of 5×10⁵ cells/100 μl. 1 μl of a human Fc block solution was added to each sample and reacted at 4° C. for 10 minutes. […] The result was centrifuged in 200 μl of FACS buffer at 1,200 rpm for 5 minutes to remove the supernatant. The cells were resuspended in 300 μl of fixation buffer. The cells expressing GFP were screened using a FACS LSR-Fortessa instrument, and TIGIT candidate antibodies were identified using a PE fluorescence channel and analyzed using FlowJo software.

[3] = target: T3, human TIGIT-Fc antigen; test: ELISA, IgG titrated on plate-coated human TIGIT-Fc
Description: (§1) 50 μl of the human TIGIT-Fc antigen was added at a concentration of 3 μg/ml to an ELISA plate, incubated at 4° C. overnight, and then blocked with 1% BSA in PBS at room temperature for 2 hours. […] The result was washed 3 times with PBST (0.05% Tween 20 in PBS), and 50 μl of anti-His-HRP was diluted 1/1000 in PBS and then reacted at room temperature for 1 hour. The result was washed 3 times with PBST (0.05% Tween 20 in PBS), and 50 μl of a TMB solution was added thereto. The result was allowed to react at room temperature for 5 minutes, 50 μl of a TMB stop solution was added thereto, and the absorbance was measured at 450 nm in an ELISA leader.

[4] = target: T4, TIGIT on thaw-and-use TIGIT effector …; test: cell-based or functional assay
[5] = target: T1, TIGIT on the TIGIT-overexpressing …; test: flow cytometry on Jurkat-TIGIT cells, antibody 25 to 0.00032 ug/ml, PE goat anti-human Fab'2, MFI
Description: The cells were resuspended in FACS buffer so that the number of cells was 3×10⁶ cells/ml, and 100 μl of the suspension was added to each well of a U-bottom 96-well plate. Then, the cells and culture solution of each well were recovered and centrifuged at 1,500 rpm, and then the supernatant was discarded. […] This series of processes was repeated twice. Phycoerythrin (hereinafter, referred to as “PE”)-conjugated goat anti-human Fab′2 (Sigma; Cat. #P8047) was diluted in FACS buffer at a volume ratio of 1:500, 100 μl thereof was added to each well, and the reaction was allowed to proceed in the dark at 4° C. for 30 minutes. The cells reacted with PE were recovered, resuspended in FACS buffer, and centrifuged at 1,500 rpm, the supernatant was discarded, and the residue was washed. This series of processes was repeated twice. […] The cells reacted with the fixation buffer were recovered, resuspended in FACS buffer, and centrifuged at 1,500 rpm, the supernatant was discarded, and the residue was washed. This series of processes was repeated twice. The washed cells were resuspended in 200 μl of FACS buffer, and then the median fluorescence intensity (MFI) of PE with which the cells were labeled was compared using a FACS LSR-Fortessa instrument. All FACS analysis was performed using FlowJo software.

[6] = target: T3, human TIGIT-Fc antigen; test: ELISA, IgG titrated on plate-coated human TIGIT-Fc
Description: as §1

[7] = target: T5, human TIGIT-His antigen; test: Octet (BLI), human TIGIT-HIS on penta-His sensor, antibody in solution
Description: A 5 μg/ml of human TIGIT-HIS was prepared by diluting the same in a 1×KB buffer. Anti-human TIGIT antibodies were prepared through ½ serial dilution with 1×KB buffer from a starting concentration of 100 nM.

[8] = target: T4, TIGIT on thaw-and-use TIGIT effector …; test: cell-based or functional assay; remark: listed apart in the source
[9] = target: T5, human TIGIT-His antigen; test: SPR (Biacore), antibody (1G8 IgG4) captured on an anti-protein A CM5 chip, TIGIT-HIS as analyte in 1/2 serial dilution, contact 120 s, dissociation 600 s
Description: (§2) 10 μg/ml of anti-protein A was prepared by diluting the same in an acetate 4.0 buffer. 100 nM NHS, 400 mM EDC and 1 M ethanolamine were prepared. The sensor chip used herein was a CM5. The contact time was set at 300s (5 min), the flow rate was set at 5 μg/ml, and the immobilization level was set at 2,500 RU. After performing running, whether the RU reached the target level was monitored in the system control window.
(§3) When running was completed, ka, kd, and KD were obtained by fitting using evaluation software.

[10] = target: T5, human TIGIT-His antigen; test: SPR (Biacore), antibody (WIN-1B6 IgG4) captured on an anti-protein A CM5 chip, TIGIT-HIS as analyte in 1/2 serial dilution, contact 120 s, dissociation 600 s
Description: as §2, §3

[11] = target: T5, human TIGIT-His antigen; test: SPR (Biacore), antibody captured on an anti-protein A CM5 chip, TIGIT-HIS as analyte in 1/2 serial dilution, contact 120 s, dissociation 600 s
Description: as §2, §3

| Binder | EC50 [1] [µg/mL] | binding result [2] | EC50 [3] [nM] | EC50 of bioluminescence (RLU), TIGIT/CD155 blockade bioassay: TIGIT effector cells with CD155 aAPC/CHO-K1 cells [4] [nM] | EC50 [5] [µg/mL] | EC50 [6] [nM] | Kd [7] [nM] | koff [7] [s⁻¹] | kon [7] [M⁻¹ s⁻¹] | EC50 of T-cell activation (luminescence, TIGIT/CD155 blockade bioassay with TIGIT effector cells and CD155 aAPC/CHO-K1 cells) [8] [nM] | Kd [9] [nM] | koff [9] [s⁻¹] | kon [9] [M⁻¹ s⁻¹] | Kd [10] [nM] | koff [10] [s⁻¹] | kon [10] [M⁻¹ s⁻¹] | Kd [11] [nM] | koff [11] [s⁻¹] | kon [11] [M⁻¹ s⁻¹] |
| --- | --- | --- | --- | --- | --- | --- | --- | --- | --- | --- | --- | --- | --- | --- | --- | --- | --- | --- | --- |
| 1G8 (IgG-type anti-TIGIT antibody) (antibody, V domains shown, section 4.2 is headed 'Conversion to IgG4-Type Anti-TIGIT Antibodies'; also called TIGIT candidate antibody (1G8)) VH: EVQLVQSGAEVKKPGASVKVSCKASGYTFTSYYMHWVRQAPGQGLEWMGIINPSGGSTSYAQKFQGRVTMTRDTSTSTVYMELSSLRSEDTAVYYCASRSGSGWFGALDYWGQGTLVTVSS VL: not shown | 0.093 | no binding (tested: 1 µg/5×10^5 cells) | ~1 | – | 0.017 | 1.63 | 0.224 | 9.32e-05 | 415000 | 2.1 | 0.59 | 0.001 | 1.78e+06 | – | – | – | – | – | – |
| WIN_1B6 (IgG-type anti-TIGIT antibody) (antibody, V domains shown, section 4.2 is headed 'Conversion to IgG4-Type Anti-TIGIT Antibodies') VH: QVQLVQSGAEVKKPGASVKVSCKASGYTFTSYGISWVRQAPGQGLEWMGWISAYNGNTNYAQKLQGRVTMTTDTSTSTAYMELRSLRSDDTAVYYCARAGWEQQLGFDYWGQGTLVTVSS VL: AIQLTQSPSSLSASVGDRVTISCRASQTIRSYLNWYQQKPGKAPKLLIYAASSLQSGVPLRFSGSGSGTDFTLTISSLQPEDFATYYCQQSYSTLPLTFGGGTKVEIKR | 0.068 | no binding (tested: 1 µg/5×10^5 cells) | – | 11.8 | 0.016 | 0.86 | 0.443 | 0.000206 | 465000 | – | – | – | – | 21.4 | 0.0245 | 1.15e+06 | – | – | – |
| 1F10 (IgG-type anti-TIGIT antibody) (antibody, V domains shown, section 4.2 is headed 'Conversion to IgG4-Type Anti-TIGIT Antibodies') VH: EVQLVESGGGLVKPGGSLRISCAASGFTFSNYNMIWVRQAPGKGLEWVSSISSSASYIYYADSVKGRFTISRDNAKNSLYLQMNSLRAEDTAVYYCARDEGSRDSWNNGPYYYSGMDVWGQGTTVTVSS VL: AIQMTQSPSSLSASVGDRVTITCRASQSISRYLNWYQHKPGKAPKLLIYGASSLQSGVPSRFRGSGSGTDFTLTISSLQPEDFATYYCQQSYTTPGAFTFGGGTKVEIKR | 0.38 | no binding (tested: 1 µg/5×10^5 cells) | – | 35.7 | 0.08 | 5.35 | 1.32 | 0.000232 | 176000 | – | – | – | – | – | – | – | – | – | – |

Other lines, results leading:

| EC50 [1] [µg/mL] | binding result [2] | EC50 [3] [nM] | EC50 of bioluminescence (RLU), TIGIT/CD155 blockade bioassay: TIGIT effector cells with CD155 aAPC/CHO-K1 cells [4] [nM] | EC50 [5] [µg/mL] | EC50 [6] [nM] | Kd [7] [nM] | koff [7] [s⁻¹] | kon [7] [M⁻¹ s⁻¹] | EC50 of T-cell activation (luminescence, TIGIT/CD155 blockade bioassay with TIGIT effector cells and CD155 aAPC/CHO-K1 cells) [8] [nM] | Kd [9] [nM] | koff [9] [s⁻¹] | kon [9] [M⁻¹ s⁻¹] | Kd [10] [nM] | koff [10] [s⁻¹] | kon [10] [M⁻¹ s⁻¹] | Kd [11] [nM] | koff [11] [s⁻¹] | kon [11] [M⁻¹ s⁻¹] | Binder |
| --- | --- | --- | --- | --- | --- | --- | --- | --- | --- | --- | --- | --- | --- | --- | --- | --- | --- | --- | --- |
| 0.102 | no binding (tested: 1 µg/5×10^5 cells) | ~1 | 19.1 | 0.021 | 1.73 | 0.937 | 0.000528 | 563000 | – | – | – | – | – | – | – | – | – | – | 1E8 (IgG-type anti-TIGIT antibody) (antibody, V domains shown, section 4.2 is headed 'Conversion to IgG4-Type Anti-TIGIT Antibodies') VH: QVQLVQSGTEVKKPGASVKVSCKASGYTFSSYAITWVRQAPGQGLEWMGWISAYNGNTNYAQKLQGRVTMTTDTSTSTAYMELRSLRSDDTAVYYCARVDFWSGYNYFDYWGQGTLVTVSS VL: DIQMTQSPSSLSASVGDRVTITCRASQGISNYLAWYQQKPGKVPKVLIYAASTLQSGVPSRFSGSGSGTDFTLTISSLQPEDVATYYCQKSNSAPLTFGGGTKVEIKR |
| 0.071 | no binding (tested: 1 µg/5×10^5 cells) | ~1 | 27.3 | 0.017 | 1.75 | 0.571 | 0.000278 | 488000 | – | – | – | – | – | – | – | – | – | – | WIN_1D2 (IgG-type anti-TIGIT antibody) (antibody, V domains shown, section 4.2 is headed 'Conversion to IgG4-Type Anti-TIGIT Antibodies') VH: QVQLVQSGAEVKKPGASVKVSCKASGYTFTSYGISWVRQAPGQGLEWMGWISAYNGNTNYAQKLQGRVTMTTDTSTSTAYMELRSLRSDDTAVYYCARAGWEQQLGFDYWGQGTLVTVSS VL: AIQLTQSPSSLSASVGDRVTITCRASQSISSYLNWYQQKPGKAPKLLIYAASSLQSGVPSRFSGSGSGTDFTLTISSLQPEDFATYYCQQSYSTLAITFGQGTRLEIKR |
| – | – | – | 6.1 | – | – | – | – | – | – | – | – | – | – | – | – | 0.375 | 0.000233 | 622000 | reference antibody (anti-TIGIT) (antibody, V domains shown) VH: EVQLQQSGPGLVKPSQTLSLTCAISGDSVSSNSAAWNWIRQSPSRGLEWLGKTYYRFKWYSDYAVSVKGRITINPDTSKNQFSLQLNSVTPEDTAVFYCTRESTTYDLLAGPFDYWGQGTLVTVSS VL: not shown |

— patent US20220162310A1 (GREEN CROSS, published 2022)
